{"source": "patent US20130280250A1", "about": "(published 2013)", "target": "T1, CD20 (human, UniProt P11836 1-297)", "T1 construct": "whole, on cells; also called CD20 on live cells; CD20 on Daudi and Raji cells", "T1 sequence (looked up)": "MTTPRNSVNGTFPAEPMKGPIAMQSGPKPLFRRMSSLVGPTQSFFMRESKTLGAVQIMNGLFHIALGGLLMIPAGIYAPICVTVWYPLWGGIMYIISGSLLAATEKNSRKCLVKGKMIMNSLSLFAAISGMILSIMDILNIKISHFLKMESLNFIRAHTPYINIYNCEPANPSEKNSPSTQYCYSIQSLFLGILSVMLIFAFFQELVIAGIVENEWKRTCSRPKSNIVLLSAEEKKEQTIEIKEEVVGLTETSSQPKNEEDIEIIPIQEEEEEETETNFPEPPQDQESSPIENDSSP", "experiment": "Scatchard analysis, radio-iodinated sample on Raji cells; apparent association constant"}
{"binder": "veltuzumab (hA20) (antibody, V domains shown) VH: QVQLQQSGAEVKKPGSSVKVSCKASGYTFTSYNMHWVKQAPGQGLEWIGAIYPGMGDTSYNQKFKGKATLTADESTNTAYMELSSLRSEDTAFYYCARSTYYGGDWYFDVWGQGTTVTVSS VL: DIQLTQSPSSLSASVGDRVTMTCRASSSVSYIHWFQQKPGKAPKPWIYATSNLASGVPVRFSGSGSGTDYTFTISSLQPEDIATYYCQQWTSNPPTFGGGTKLEIK", "values": [{"measurement": "Ka", "value": "1e+08", "unit": "M⁻¹"}]}
